Results on two molecules are retold here after US20260193638A1 (ROCHE DIAGNOSTICS OPERATIONS, published 2026).

The target of test [1] is T1, human recombinant TNFα (fully intact trimeric TNFα) (human, UniProt P01375 77-233).
T1 construct: also called hrTNFα
Put plainly: SPR, TT10F7 captured, TNFα (52 kDa trimer) in solution, + TWEEN 20. The protocol:
(§1) The samples were diluted in the instrument's buffer. In another embodiment the buffer was HBS-E buffer (10 mM HEPES pH 7.4, 150 mM NaCl, 3 mM EDTA) and the samples were diluted in the detergent-free buffer. The system operated at 25° C. 10000 RU GAR-Fcγ (relative units of Fcγ-fragment binding, polyclonal goat anti-Rabbit IgG/Jackson Laboratories) were immobilized according to the manufacturer's instructions using EDC/NHS chemistry on all 4 flow cells. The sensor is finally deactivated using 1M ethanolamine. […] A monoclonal rabbit anti-Thermus thermophilus SlyD core protein (0612pS3A8) binding antibody, was captured in all flow cells by a 6 min injection at 5 μl/min. […] Flow cell 1 served as a reference. […] The Thermus thermophilus SlyD-FKBP clones were specifically captured on the sensor by a 2 min injection at 30 μl/min directly from a 1:25 diluted 10000 g-centrifuged E. coli lysate supernatant.
(§2) The flow rate was set to 100 μl/min. […] The dissociation was monitored for 5 minutes.
A general note: Surface plasmon resonance follows binding to a sensor surface in real time, without labels.

Test [2] has as its target T1, human recombinant TNFα (fully intact …). Put plainly: SPR, TT10F7 captured, TNFα (52 kDa trimer) in solution, - TWEEN 20. The protocol:
as §1, §2

Test [3] concerns the target Streptavidin (11897000, Roche) (UniProt P22629 37-163, limits assumed). Nature of the test: SPR, TT10F7 captured via anti-SlyD antibody, streptavidin in solution. As for the experimental part:
as §1, §2

Test [4] addresses T1, human recombinant TNFα (fully intact …). Nature of the test: SPR BIACORE 3000, TT10F7 captured via anti-SlyD antibody, trimeric TNFα as analyte. The protocol:
as §1, with “A CM5 series sensor was mounted into the system and was normalized in HBS-ET buffer (10 mM HEPES pH 7.4, 150 mM NaCl, 3 mM EDTA, 0.005% w/v Tween 20) according to the manufacturer's instructions. The samples” for “The samples”
as §2

For test [5] the target is unchanged. Put plainly: SPR, C10B9 captured via anti-SlyD antibody, TNFα in solution. The protocol:
as §1, §2

T1 sequence (P01375 77-233 limits assumed): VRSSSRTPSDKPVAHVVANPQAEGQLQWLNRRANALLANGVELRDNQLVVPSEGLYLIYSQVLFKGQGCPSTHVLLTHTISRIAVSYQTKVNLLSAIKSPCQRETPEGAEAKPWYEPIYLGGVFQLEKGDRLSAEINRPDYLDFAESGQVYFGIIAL
Chain of Streptavidin (11897000, Roche) (P22629 37-163 limits assumed): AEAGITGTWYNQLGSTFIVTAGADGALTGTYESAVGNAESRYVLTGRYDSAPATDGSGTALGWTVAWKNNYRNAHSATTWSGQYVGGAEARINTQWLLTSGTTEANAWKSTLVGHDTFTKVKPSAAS

B1: Thermus thermophilus SlyD-FKBP TT10F7 (designed binder)
chain: MRSKVGQDKVVTIRYTLQVEGEVLDQGELSYLHGHRNLIPGLEEALEGREEGEAFQAHVPAEKAYGAGSWKPHFNLHLLYLIGSSGKDLDFQVEVVKVREATPEELLHGHAHGGAAAGLNDIFEAQKIEWHEGSRKHHHHHHHH
notes: captured on the sensor directly from E. coli lysate; also called TT10F7 mutant; TT10F7 T.t.SlyD-FKBP12
For the molecule B1, in test [1], the equilibrium dissociation constant (Kd) is 258 nM, the koff was 0.00268 s⁻¹ and the association rate constant (kon) amounted to 10400 M⁻¹ s⁻¹. In test [2], the Kd was determined as 262 nM, the koff stood at 0.00103 s⁻¹ and the kon was 3960 M⁻¹ s⁻¹. Further, the binding result in test [3] is listed as “no binding (tested: 1 µM)”. Moreover, in test [4], the stoichiometry fell in the range of 3 to 1.

B2: Thermus thermophilus SlyD-FKBP clone C10B9 (designed binder)
chain: MRSKVGQDKVVTIRYTLQVEGEVLDQGELSYLHGHRNLIPGLEEALEGREEGEAFQAHVPAEKAYGAGSYYVLITDNLVYFGGSSGKDLDFQVEVVKVREATPEELLHGHGGAAAGLNDIFEAQKIEWHEGSRKHHHHHHHH
notes: also called C10B9 mutant
On to B2, for which the binding result in test [5] is reported as “no binding (tested: 1 µM)”.

As usually defined, the Kd is the concentration at which binding is half-saturated. What is called koff is the first-order rate constant of dissociation. By kon is commonly meant a measure of how fast the partners come together.
